According to PMC12636033, “Chemical Engineering of Transcription Factors Uncovered Cell-Permeable μMax Modulators”:

Target: WT Max (Homo sapiens, UniProt P61244-2 13-93, M65Nle, norleucine written as M; other non-natural residues written as X)
Test: PBM; 50-200 nM protein; PBS, 2% milk, BSA, salmon testes DNA, 0.02% Triton X-100
Settings: chain copies: 2; label: surface-attached array probe

WT Max, sequence (P61244 other isoform, or with tags, fused parts or gaps M65Nle): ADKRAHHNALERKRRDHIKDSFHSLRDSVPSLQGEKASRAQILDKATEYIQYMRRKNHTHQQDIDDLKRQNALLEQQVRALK

Binder | binding signal
dBr_Jan07_06713 (dsDNA) DNA 1: AGTAACGGGGTCGCTTGATGGGCTCTTCCGCGTGGAGTCTGTGTTCCGTTGTCCGTGCTG DNA 2: CAGCACGGACAACGGAACACAGACTCCACGCGGAAGAGCCCATCAAGCGACCCCGTTACT | 3.79 robust z of log adjusted intensity (ours), mean of two arrays
dBr_Jan07_24960 (dsDNA) DNA 1: CGCAAAGCATTATCAACCTGGGTGCCTATCACGTGGGTCTGTGTTCCGTTGTCCGTGCTG DNA 2: CAGCACGGACAACGGAACACAGACCCACGTGATAGGCACCCAGGTTGATAATGCTTTGCG | 4.08 robust z of log adjusted intensity (ours), mean of two arrays
dBr_Jan07_23485 (dsDNA) DNA 1: CAGTGTAGAAAGTGAACACGTGTGACACGCCTGGTTGTCTGTGTTCCGTTGTCCGTGCTG DNA 2: CAGCACGGACAACGGAACACAGACAACCAGGCGTGTCACACGTGTTCACTTTCTACACTG | 4.26 robust z of log adjusted intensity (ours), mean of two arrays
dBr_Jan07_27761 (dsDNA) DNA 1: ATATCGACCTTTTATTGAAAACCGGGAGTCTCACGTGTCTGTGTTCCGTTGTCCGTGCTG DNA 2: CAGCACGGACAACGGAACACAGACACGTGAGACTCCCGGTTTTCAATAAAAGGTCGATAT | 3.44 robust z of log adjusted intensity (ours), mean of two arrays
dBr_Jan07_01656 (dsDNA) DNA 1: TCGATCACACACGTGCTTATTGTACCAAACACATACGTCTGTGTTCCGTTGTCCGTGCTG DNA 2: CAGCACGGACAACGGAACACAGACGTATGTGTTTGGTACAATAAGCACGTGTGTGATCGA | 3.68 robust z of log adjusted intensity (ours), mean of two arrays
dBr_Jan07_20507 (dsDNA) DNA 1: GTGCCCGATTGTCTACGGCACCACGTGTGTTACCAGGTCTGTGTTCCGTTGTCCGTGCTG DNA 2: CAGCACGGACAACGGAACACAGACCTGGTAACACACGTGGTGCCGTAGACAATCGGGCAC | 4.13 robust z of log adjusted intensity (ours), mean of two arrays
dBr_Jan07_17844 (dsDNA) DNA 1: AATGGACTCGTTTTTTTTGCGTTATTAGACCACGCGGTCTGTGTTCCGTTGTCCGTGCTG DNA 2: CAGCACGGACAACGGAACACAGACCGCGTGGTCTAATAACGCAAAAAAAACGAGTCCATT | 3.78 robust z of log adjusted intensity (ours), mean of two arrays
dBr_Jan07_15201 (dsDNA) DNA 1: TTGCCTGGGATTAGATTCTACGCTCACGATGCACGTGTCTGTGTTCCGTTGTCCGTGCTG DNA 2: CAGCACGGACAACGGAACACAGACACGTGCATCGTGAGCGTAGAATCTAATCCCAGGCAA | 3.45 robust z of log adjusted intensity (ours), mean of two arrays
dBr_Jan07_27753 (dsDNA) DNA 1: TTTTCATACGAACTTCGAGCTCCCCACGTGGTTCTTGTCTGTGTTCCGTTGTCCGTGCTG DNA 2: CAGCACGGACAACGGAACACAGACAAGAACCACGTGGGGAGCTCGAAGTTCGTATGAAAA | 5.1 robust z of log adjusted intensity (ours), mean of two arrays
dBr_Jan07_34042 (dsDNA) DNA 1: GCCGAAAGTCCCCCACGTGGTCAGTAAAAGAGAAGAGTCTGTGTTCCGTTGTCCGTGCTG DNA 2: CAGCACGGACAACGGAACACAGACTCTTCTCTTTTACTGACCACGTGGGGGACTTTCGGC | 4.32 robust z of log adjusted intensity (ours), mean of two arrays
dBr_Jan07_15488 (dsDNA) DNA 1: TAGTAGTCGTTGCTAGCTGCAAGGAATGGCGCACGTGTCTGTGTTCCGTTGTCCGTGCTG DNA 2: CAGCACGGACAACGGAACACAGACACGTGCGCCATTCCTTGCAGCTAGCAACGACTACTA | 3.81 robust z of log adjusted intensity (ours), mean of two arrays
dBr_Jan07_07015 (dsDNA) DNA 1: CGATACTGTATCGCATGGACAGCACGTGCAATTAGGGTCTGTGTTCCGTTGTCCGTGCTG DNA 2: CAGCACGGACAACGGAACACAGACCCTAATTGCACGTGCTGTCCATGCGATACAGTATCG | 3.94 robust z of log adjusted intensity (ours), mean of two arrays
dBr_Jan07_17404 (dsDNA) DNA 1: TTGCGTGTTGTGTCTAATATCCAAACTACACCACGTGTCTGTGTTCCGTTGTCCGTGCTG DNA 2: CAGCACGGACAACGGAACACAGACACGTGGTGTAGTTTGGATATTAGACACAACACGCAA | 4.24 robust z of log adjusted intensity (ours), mean of two arrays
dBr_Jan07_31967 (dsDNA) DNA 1: GTGTCACGTGTCGTTCATCCTTATTAACTAGGGTCTGTCTGTGTTCCGTTGTCCGTGCTG DNA 2: CAGCACGGACAACGGAACACAGACAGACCCTAGTTAATAAGGATGAACGACACGTGACAC | 3.79 robust z of log adjusted intensity (ours), mean of two arrays
dBr_Jan07_14484 (dsDNA) DNA 1: CTGCAGTTCTACTGTATCCACGACATAGAGACACGTGTCTGTGTTCCGTTGTCCGTGCTG DNA 2: CAGCACGGACAACGGAACACAGACACGTGTCTCTATGTCGTGGATACAGTAGAACTGCAG | 5.27 robust z of log adjusted intensity (ours), mean of two arrays
dBr_Jan07_05071 (dsDNA) DNA 1: CGTGTAACCTTCAGGCACGTGGTTTAATCGTTATCCGTCTGTGTTCCGTTGTCCGTGCTG DNA 2: CAGCACGGACAACGGAACACAGACGGATAACGATTAAACCACGTGCCTGAAGGTTACACG | 4.32 robust z of log adjusted intensity (ours), mean of two arrays
dBr_Jan07_15832 (dsDNA) DNA 1: TGCTAGGTGCGGGGCGTGCCATTGTACCACGTGGCTGTCTGTGTTCCGTTGTCCGTGCTG DNA 2: CAGCACGGACAACGGAACACAGACAGCCACGTGGTACAATGGCACGCCCCGCACCTAGCA | 3.84 robust z of log adjusted intensity (ours), mean of two arrays

Binder | binding signal
dBr_Jan07_19348 (dsDNA) DNA 1: ACCTCTGTAAGTCTGAGTCTGATAACCACGTGTCGGGTCTGTGTTCCGTTGTCCGTGCTG DNA 2: CAGCACGGACAACGGAACACAGACCCGACACGTGGTTATCAGACTCAGACTTACAGAGGT | 5.01 robust z of log adjusted intensity (ours), mean of two arrays
dBr_Jan07_18911 (dsDNA) DNA 1: ACAAACCCCGCACGTGCCTTCGCCCCCTCCTATGCGGTCTGTGTTCCGTTGTCCGTGCTG DNA 2: CAGCACGGACAACGGAACACAGACCGCATAGGAGGGGGCGAAGGCACGTGCGGGGTTTGT | 3.79 robust z of log adjusted intensity (ours), mean of two arrays
dBr_Jan07_04601 (dsDNA) DNA 1: GGTGTACGCTAAGGATGCTACTACGACCTAACACGTGTCTGTGTTCCGTTGTCCGTGCTG DNA 2: CAGCACGGACAACGGAACACAGACACGTGTTAGGTCGTAGTAGCATCCTTAGCGTACACC | 3.7 robust z of log adjusted intensity (ours), mean of two arrays
dBr_Jan07_23401 (dsDNA) DNA 1: TCTATGCTCGCGGATGCCCTTAAACTAGGCACGTGTGTCTGTGTTCCGTTGTCCGTGCTG DNA 2: CAGCACGGACAACGGAACACAGACACACGTGCCTAGTTTAAGGGCATCCGCGAGCATAGA | 3.69 robust z of log adjusted intensity (ours), mean of two arrays
dBr_Jan07_02206 (dsDNA) DNA 1: GGCAGTCGGTCGTTCCAGATATTAGGATCTCCACGTGTCTGTGTTCCGTTGTCCGTGCTG DNA 2: CAGCACGGACAACGGAACACAGACACGTGGAGATCCTAATATCTGGAACGACCGACTGCC | 3.71 robust z of log adjusted intensity (ours), mean of two arrays
dBr_Jan07_38389 (dsDNA) DNA 1: CAAGCCTATCGCGGCCAATCGGTAAGCACGTGACTAGTCTGTGTTCCGTTGTCCGTGCTG DNA 2: CAGCACGGACAACGGAACACAGACTAGTCACGTGCTTACCGATTGGCCGCGATAGGCTTG | 3.67 robust z of log adjusted intensity (ours), mean of two arrays
dBr_Jan07_24740 (dsDNA) DNA 1: ATAGAGCGTCAGAATAGTGACATACACGTGGTCCCCGTCTGTGTTCCGTTGTCCGTGCTG DNA 2: CAGCACGGACAACGGAACACAGACGGGGACCACGTGTATGTCACTATTCTGACGCTCTAT | 3.51 robust z of log adjusted intensity (ours), mean of two arrays
dBr_Jan07_38976 (dsDNA) DNA 1: CGACACAGAAAACAATTCCGACTTGCTTTCCGCGTGGTCTGTGTTCCGTTGTCCGTGCTG DNA 2: CAGCACGGACAACGGAACACAGACCACGCGGAAAGCAAGTCGGAATTGTTTTCTGTGTCG | 3.81 robust z of log adjusted intensity (ours), mean of two arrays
dBr_Jan07_37497 (dsDNA) DNA 1: CCAGTTAGTAACACGTGTCCACTCCTTGTCGTACAGGTCTGTGTTCCGTTGTCCGTGCTG DNA 2: CAGCACGGACAACGGAACACAGACCTGTACGACAAGGAGTGGACACGTGTTACTAACTGG | 4.27 robust z of log adjusted intensity (ours), mean of two arrays
dBr_Jan07_01852 (dsDNA) DNA 1: AGGAGTCTTGCCGCACGGTCCCCGTCTTATGCACGTGTCTGTGTTCCGTTGTCCGTGCTG DNA 2: CAGCACGGACAACGGAACACAGACACGTGCATAAGACGGGGACCGTGCGGCAAGACTCCT | 3.5 robust z of log adjusted intensity (ours), mean of two arrays
dBr_Jan07_31500 (dsDNA) DNA 1: CTCCGTGGGTTCGTGAGTTCATGGCGAAAAGCACGTGTCTGTGTTCCGTTGTCCGTGCTG DNA 2: CAGCACGGACAACGGAACACAGACACGTGCTTTTCGCCATGAACTCACGAACCCACGGAG | 4.51 robust z of log adjusted intensity (ours), mean of two arrays
dBr_Jan07_23034 (dsDNA) DNA 1: TCCGTACGGTCTCGTTCCATAGCTTGCTACCATGTGGTCTGTGTTCCGTTGTCCGTGCTG DNA 2: CAGCACGGACAACGGAACACAGACCACATGGTAGCAAGCTATGGAACGAGACCGTACGGA | 3.64 robust z of log adjusted intensity (ours), mean of two arrays
dBr_Jan07_30456 (dsDNA) DNA 1: GGCGTTGTCAGGAAGGATTGGCTGTCGTCAACACGTGTCTGTGTTCCGTTGTCCGTGCTG DNA 2: CAGCACGGACAACGGAACACAGACACGTGTTGACGACAGCCAATCCTTCCTGACAACGCC | 3.62 robust z of log adjusted intensity (ours), mean of two arrays
dBr_Jan07_09181 (dsDNA) DNA 1: CACATTATTTCACACGTGGACGGCACCCACAAACACGTCTGTGTTCCGTTGTCCGTGCTG DNA 2: CAGCACGGACAACGGAACACAGACGTGTTTGTGGGTGCCGTCCACGTGTGAAATAATGTG | 3.99 robust z of log adjusted intensity (ours), mean of two arrays
dBr_Jan07_17964 (dsDNA) DNA 1: ACTTGAATGAGGGCCTTTGATCTGCTTTACTCACGTGTCTGTGTTCCGTTGTCCGTGCTG DNA 2: CAGCACGGACAACGGAACACAGACACGTGAGTAAAGCAGATCAAAGGCCCTCATTCAAGT | 3.59 robust z of log adjusted intensity (ours), mean of two arrays
dBr_Jan07_11048 (dsDNA) DNA 1: CGAAATCTTACATGCTCTTGGGTCTAAGACGCACGTGTCTGTGTTCCGTTGTCCGTGCTG DNA 2: CAGCACGGACAACGGAACACAGACACGTGCGTCTTAGACCCAAGAGCATGTAAGATTTCG | 5.56 robust z of log adjusted intensity (ours), mean of two arrays
